Values quoted from earlier work in publication PMC7246992.
Read-outs that look alike come from different tables or passages of the source.

Assays:
[1] = molecular target: linear ubiquitin (Homo sapiens) (UniProt P0CG48)
[2] = molecular target: linear ubiquitin (Homo sapiens) (UniProt P0CG48); remark: listed apart in the source

A20 ZF7, sequence (P21580 756-790): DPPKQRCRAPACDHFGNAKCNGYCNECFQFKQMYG
optineurin UBAN, sequence (Q96CV9 416-510): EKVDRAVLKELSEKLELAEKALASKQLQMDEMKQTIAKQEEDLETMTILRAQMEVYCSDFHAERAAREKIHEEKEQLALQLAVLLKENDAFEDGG

Kd [1]	Kd [2]	Substance
9 µM		A20 ZF7 (from UniProt P21580)
	1 µM	optineurin UBAN (from UniProt Q96CV9)
